From patent US20230227537A1 (VIB VZW, published 2023) come the findings set out here.

Test [1] has as its target T1, SARS-CoV-2 RBD protein Avi-tag biotinylated (AcroBiosystems SPD-C82E9) (SARS-CoV-2, UniProt P0DTC2 330-518).
Test [2] concerns the target T2, Mouse IgG1 Fc fused SARS-CoV-2 RBD (Sino Biological) (SARS-CoV-2; mouse, UniProt P0DTC2 330-518).
In test [3] the target is SARS-CoV-2 spike, full length, on cells or on pseudotyped/authentic virus (SARS-CoV-2, UniProt P0DTC2 14-1273). Briefly: cell-based or functional assay.
Test [4] deals with T2, Mouse IgG1 Fc fused SARS-CoV-2 RBD …. The source holds these as a separate data set.
Test [5] has the same target. Briefly: BLI, RBD-mFc on AMC tips, global 1:1 fit. For orientation: In BLI a coated tip is dipped into the sample, and binding shifts an interference pattern.
For test [6] the target is unchanged. The source holds these as a separate data set.
The target is the same in test [7]. This is another data set of the same source.
In test [8] the target is T1, SARS-CoV-2 RBD protein Avi-tag …. This is another data set of the same source.
Test [9] shares this target. The source holds these as a separate data set.
For test [10] the target is unchanged. The source holds these as a separate data set.
Test [11] concerns the target WT SARS-CoV-2 RBD displayed on Saccharomyces cerevisiae (SARS-CoV-2, UniProt P0DTC2 331-518).
In test [12] the target is T1, SARS-CoV-2 RBD protein Avi-tag …. This is another data set of the same source.
The target of test [13] is T3, monomeric human Fc-fused SARS-CoV-2_RBD-SD1 (SARS-CoV-2, UniProt P0DTC2 319-591). The test can be described thus: BLI, RBD-SD1-mono-hFc on AHC tips.
Test [14] concerns the target T3, monomeric human Fc-fused …. Briefly: BLI kinetics on RBD-mono-hFc, 1:1 fit, mean ± SD, n = 2 [lower graph].
Test [15] addresses T3, monomeric human Fc-fused …. The test can be described thus: BLI kinetics on RBD-mono-hFc, 1:1 fit, mean ± SD, n = 2 [upper graph].
Test [16] deals with T3, monomeric human Fc-fused …. Briefly: BLI kinetics on RBD-mono-hFc, 1:1 fit, mean ± SD, n = 2.

Changes are numbered by the printed parent chain. Names and notes keep the numbering of the source. Read-outs that look alike come from different tables or passages of the source.

B1: VHH3.35 (VHH)
VHH: QVQLQESGGGLVQAGGSLTLSCEVSGRTNDNYGVGWFRQVPGAERELVAAIRWSSISRYYKDSVKGRFTISRDNAKNTVYLQMDMLKAEDTAVYYCAADPAGWSEFGMEYWGKGTQVTVSS
Regarding B1, in [1], 0.406 nM corresponded to half-maximal inhibition (IC50).

B2: VHH3.55 (VHH)
VHH: B1 VHH with T19R, A88P, V93A
In turn, B2 returned an IC50 in test [1] of 0.322 nM.

B3: VHH3.29 (VHH)
VHH: QVQLQESGGGLVQAGGSLRLSCVASGRTFSSGGMGWFRQAPGQEREFVAGIGWAGLSSYYLDSVKGRFTISLDNAKNTVYLQMNMLKPEDTGVYYCAADDHGWSAAGMDYLGQGTQVTVSS
Turning to B3, in [1], it took 0.389 nM to reach half-maximal inhibition (IC50).

B4: D72-22: h1-VHH72-[change]-GS-hIgG1hinge-hIgG1Fc (Fc fusion)
chain: EVQLVESGGGLVQPGGSLRLSCAASGRTFSEYAMGWFRQAPGKEREFVATISWSGGATYYTDSVKGRFTISRDNAKNTVYLQMNSLRPEDTAVYYCAAAGLGTVVSEWDYDYDYWGQGTLVTVSSGS
In test [2], B4 displayed a Kd of 0.0471 nM, a koff of 4.87e-05 s⁻¹ and a kon of 1.07e+06 M⁻¹ s⁻¹. In addition, the “IC50, plaque reduction neutralization, authentic SARS-CoV-2” value in test [3] is 0.12 µg/mL. Also, the response in test [4] was half-maximal at 4.39 ng/mL (EC50).

B5: D72-17: h1-VHH72-GS-hIgG1hinge-hIgG1Fc-L234A-L235A-P329G (Fc fusion)
chain: B4 chain with A57S
notes: ExpiCHO
For the molecule B5, in [5], the Kd worked out at 0.1 nM, the koff turned out to be 0.000178 s⁻¹ and the association rate constant (kon) turned out to be 1.77e+06 M⁻¹ s⁻¹. The molecule also gave an EC50 in [4] of 8.36 ng/mL.

B6: D72-15: VHH72-GS-hIgG1hinge-hIgG1Fc-L234A-L235A-P329G (Fc fusion)
chain: B4 chain with E1Q, V5Q, P14A, A57S, R87K, E89D, L120Q
notes: ExpiCHO
In test [5], B6 displayed a Kd of 0.13 nM, a koff of 0.000297 s⁻¹ and a kon of 2.29e+06 M⁻¹ s⁻¹. Besides, in [4], the EC50 is 10.8 ng/mL.

B7: VHH3.83 (VHH)
VHH: QVQLQESGGGLVQPGDSLRLSCVLSGGVFTSYAMGWFRQAPGKEREFLAAITFNSDATYYADSVKGRFTISRDNAKNTAYLQMNSLKPNDTAVYSCAAGGNHYNPQYYHDYDKYDHWGQGTQVTVSS
For B7, the IC50 in test [1] stood at 0.162 nM. In other words, the sub-nanomolar range.

B8: D72-52: VHH72_h1_E1D_S56A-([change])2-hIgG1hinge_EPKSCdel-hIgG1Fc_LALAPG_Kdel (Fc fusion)
chain: DVQLVESGGGLVQPGGSLRLSCAASGRTFSEYAMGWFRQAPGKEREFVATISWSGGATYYTDSVKGRFTISRDNAKNTVYLQMNSLRPEDTAVYYCAAAGLGTVVSEWDYDYDYWGQGTLVTVSSGGGGSGGGGSDKTHTCPPCPAPEAAGGPSVFLFPPKPKDTLMISRTPEVTCVVVDVSHEDPEVKFNWYVDGVEVHNAKTKPREEQYNSTYRVVSVLTVLHQDWLNGKEYKCKVSNKALGAPIEKTISKAKGQPREPQVYTLPPSRDELTKNQVSLTCLVKGFYPSDIAVEWESNGQPENNYKTTPPVLDSDGSFFLYSKLTVDKSRWQQGNVFSCSVMHEALHNHYTQKSLSLSPG
B8: the IC50 in [6] was 0.199 µg/mL.

B9: VHH3.149 (VHH)
VHH: QVQLQESGGGLVQAGGSLKLSCAASGRTFSSYALGWFRQAPGTEREFVSAINWFGAPTYYADSVKGRFTISRDNAKNTVYLQMDNLKPEDTAVYYCAADSKGWDPQDMDYWGKGTQVTVSS
The molecule B9 yielded an IC50 in [1] of 0.334 nM.

B10: VHH72_h1(E1D,S56A) sequence optimized (SO), monovalent (VHH)
VHH: DVQLVESGGGLVQPGGSLRLSCAASGRTFSEYAMGWFRQAPGKEREFVATISWSGGATYYTDSVKGRFTISRDNAKNTVYLQMNSLRPEDTAVYYCAAAGLGTVVSEWDYDYDYWGQGTLVTVSS
Consider B10, for which the values for the koff in [7] and in [8] were 0.00568 s⁻¹ and 0.0024 s⁻¹, respectively.

B11: PB9677 hIgG4 FALA (Fc fusion)
VHH: B10 VHH
For B11, the “IC50 (read off the curve)” value in [9] was about 20 ng/mL.

B12: VHH72_h1(S56A) (VHH)
VHH: B10 VHH with D1E
As to B12, in test [6], the Kd stood at 5.26 nM; the “fold better competition than VHH72-wt and VHH72_h1” value was 7 fold; the “fold improvement of KD against VHH72 h1” value is over 6 fold. Moreover, in test [10], the Kd is 3.09 nM, the “fold improvement of KD against VHH72 h1” value was 3 fold and the koff worked out at 0.00069 s⁻¹. Also, the “EC50 (read off the curve)” value in test [11] was about 0.3 µg/mL.

B13: VHH2.50 (VHH)
VHH: B10 VHH with D1Q, V5Q, P14A, E31S, Y32I, A57S, T61A, R87K, L120Q
B13 displayed an IC50 in test [1] of 27.7 nM.

B14: VHH72_h1 (E1D) (VHH)
VHH: B10 VHH with A57S
With B14, the Kd in test [7] was 31.1 nM; in [12] it was 10.4 nM. The koff in test [7] turned out to be 0.0313 s⁻¹; in test [12] it was 0.00204 s⁻¹; in test [8], 0.00354 s⁻¹.

B15: VHH3.36 (VHH)
VHH: QVQLQESGGGLVQAGDSLRLSCVVSGGTFSSYAMGWFRQAPGKERELVAAINWGGISVYYADSVKGRFTISRDNAENTVYLQMNSLKPEDTAVYYCAADPKGWSEWDMEYWGKGTQVTVSS
Regarding B15, in [1], the midpoint of inhibition, the IC50, lay at 0.156 nM.

B16: VHH3.115 (VHH)
VHH: QVQLQESGGGLVQTGGSLRLSCAASGLTFSDIAMGWFRQAPGREREFVATISWSGGGTYYAEPVRGRFAISRDNAKNTVYLQMNSLKPEDTAVYYCAAAGAGTVVSEWDYDYDYWGQGTQVTVSS
For B16, the IC50 in test [1] was 0.409 nM. For the same molecule, binding in test [13] was put at a Kd of 0.734 nM. Further, in test [14], the koff came out at 0.00157 s⁻¹ and the kon came to 2.14e+06 M⁻¹ s⁻¹.

B17: VHH3.77 (VHH)
VHH: QVQLQESGGGLVQAGGSLRLSCVSSGRAFGNGAVGWFRQGPGRPREFVATVSWNGGGTYFAESVRGRFTISRDNAKNTVYLQMNNLKPEDTAVYYCALAGEGTVVSEWDYDYEYWGQGTQVTVSS
As for B17, in [1], the midpoint of inhibition, the IC50, lay at 0.237 nM. Moreover, in [15], binding was put at a Kd of 0.153 nM, the koff turned out to be 0.000297 s⁻¹ and the kon came out at 1.96e+06 M⁻¹ s⁻¹. In addition, the affinity in test [13], expressed as Kd, was 0.15 nM.

B18: VHH3BE4 (VHH)
VHH: B17 VHH with S24A, G40A, P44E, F60Y, N77S, N85S, L98S, E113D
The molecule B18 had a 50% inhibitory concentration (IC50) in test [1] of 0.212 nM.

B19: VHH3.144 (VHH)
VHH: B17 VHH with S24A, G40A, P44E, F60Y, N77S, N85S, L98S, E113D
The molecule B19 showed an IC50 in test [1] of 0.397 nM.

B20: VHH3.17 (VHH)
VHH: B17 VHH with Q13E, R19T, V23A, S24A, N31D
Turning to B20, the IC50 in [1] worked out at 0.316 nM. Also, the Kd in test [13] was 0.234 nM. Also, in [16], the koff came to 0.000358 s⁻¹ and the kon is 1.54e+06 M⁻¹ s⁻¹.

B21: VHH3.38 (VHH)
VHH: QVQLQESGGGLVQAGGSLRLSCAASGGTFNNYAMAWFRQAPGQERELVAAMFWSGLPKYYADSVKGRFTISTDDAKNTVYLQMNGLKPEDTAVYYCAADSRGWSDVGGMDYWGKGTQVTVSS
In test [1], B21 yielded an IC50 of 0.769 nM.

B22: VHH3.47 (VHH)
VHH: QVQLQESGGGLVQAGDSLRLSCAASGHNFSTYAMAWFRQAPGTERELVAAISENDVMRYYADSVKGRFTISRDNAKNMAYLQMNSLKVEDTAVYLCAADPKGWSEWDMDYWGKGTQVTVSS
For the molecule B22, the IC50 in [1] came to 0.297 nM. This IC50 is about 2.6-fold lower than that of the molecule before.

A word on the IC50: it is the concentration needed to halve the response being measured. The Kd is the free concentration of one partner at which half of the binding sites on the other are occupied at equilibrium, for simple one-to-one binding. Low values mean tighter binding, high ones weaker binding. One may read the koff as the first-order rate constant of dissociation. Usually kon stands for the rate constant with which the complex forms. One may read the EC50 as the concentration at which the effect is half-maximal. A word on the EC50 (read off the curve): it is the concentration that produces a half-maximal response. The low end stands for an effect from little substance, the high end for a need for much substance.
